Experiments:
[1] = molecular target: T1, human VLA-1 α1 subunit (CD49a), full-length, on transfected CHO cells (human, UniProt P56199 29-1179); assay: cell-based or functional assay
[2] = molecular target: T1, human VLA-1 α1 subunit (CD49a), …; assay: cell-based or functional assay; remark: listed apart in the source
[3] = molecular target: T2, human VLA-1 (alpha 1/beta 1, CD49a/CD29) on IL-2 stimulated human PBMC / T cells (human, UniProt P56199 29-1179; P05556 21-798); assay: cell-based or functional assay
[4] = molecular target: T2, human VLA-1 (alpha 1/beta 1, …); assay: cell-based or functional assay; remark: listed apart in the source
[5] = molecular target: T2, human VLA-1 (alpha 1/beta 1, …); assay: cell-based or functional assay; remark: listed apart in the source
[6] = molecular target: T3, human CD49a I domain I11F (human, UniProt P56199 151-364, I11F); assay: ELISA on secreted mutant I domain
T3 construct: domain: I domain; not shown: myc and His tags

[7] = molecular target: T4, human CD49a I domain E48K (human, UniProt P56199 151-364, E48K); assay: ELISA on secreted mutant I domain
T4 construct: domain: I domain; not shown: myc and His tags

[8] = molecular target: T5, human CD49a I domain E66A (human, UniProt P56199 151-364, E66A); assay: ELISA on secreted mutant I domain
T5 construct: domain: I domain; not shown: myc and His tags

[9] = molecular target: T6, human CD49a I domain K88N (human, UniProt P56199 151-364, K88N); assay: ELISA on secreted mutant I domain
T6 construct: domain: I domain; not shown: myc and His tags

[10] = molecular target: T7, human CD49a I domain with residues 91-96 VQRGGR replaced by mouse GRRGGL (human, UniProt P56199 151-364, V91G; Q92R; R96L); assay: ELISA on secreted mutant I domain
T7 construct: domain: I domain; also called V91G, Q92R, R96L; not shown: myc and His tags

[11] = molecular target: T8, human CD49a I domain K142Q (human, UniProt P56199 151-364, K142Q); assay: ELISA on secreted mutant I domain
T8 construct: domain: I domain; text prints KI42Q once; not shown: myc and His tags

[12] = molecular target: T9, human CD49a I domain S162H (human, UniProt P56199 151-364, S162H); assay: ELISA on secreted mutant I domain
T9 construct: domain: I domain; not shown: myc and His tags

[13] = molecular target: T10, human CD49a I domain T204A (human, UniProt P56199 151-364, T204A); assay: ELISA on secreted mutant I domain
T10 construct: domain: I domain; not shown: myc and His tags

[14] = molecular target: T2, human VLA-1 (alpha 1/beta 1, …); assay: cell-based or functional assay; remark: listed apart in the source

| Binder | relative inhibition at an optimal concentration, CHO-VLA-1 adhesion to collagen IV [1] [%] | IC50, adhesion of CHO-VLA-1 cells to collagen IV [2] [nM] | % adhesion of IL-2 activated T cells to collagen IV vs no antibody, 10 µg/ml, +PMA [3] [%] | % adhesion of IL-2 activated T cells to collagen IV vs no antibody, 10 µg/ml, -PMA [3] [%] | % adhesion of T cells to collagen IV vs no antibody, 0.5 nM mAb, no PMA [4] [%] | % adhesion of T cells to collagen IV vs no antibody, 5 nM mAb, no PMA [4] [%] | % adhesion of T cells to collagen IV vs no antibody, 0.5 nM mAb, 10 ng/ml PMA [5] [%] | % adhesion of T cells to collagen IV vs no antibody, 5 nM mAb, 10 ng/ml PMA [5] [%] | binding result [6] | binding result [7] | binding result [8] | binding result [9] | binding result [10] | binding result [11] | binding result [12] | binding result [13] | T cell adhesion to immobilized collagen IV, relative estimated IC50 [14] [nM] |
| --- | --- | --- | --- | --- | --- | --- | --- | --- | --- | --- | --- | --- | --- | --- | --- | --- | --- |
| 3.40 (antibody, V domains shown, human IgG2 or IgG4) VH: QVQLVESGGGVVQPGRSLRLSCAASGFTFSTYGMHWVRQAPGKGLEWVAVIWYDGSKKYYADSVKGRFAISRDNSKNTLYLQMNSLRAEDTAVYYCARDHTMVRGVINSYYYGMAVWGQGTTVTVSS VL: SYELTQPPSVSVSPGQTASITCSGDRLGNKYACWYQQKTGQSPVLVIYQDSKRPSGIPERFSGSNSGNTATLTISGTQAMDEADYYCQAWDSSTVVFGGGTKLTVL | – | 1.3 | – | – | – | – | – | – | binds | no binding | binds | binds | binds | binds | binds | binds | > 5 |
| 7.11 (antibody, V domains shown) VH: QVQLQESGPGLVKPPETLSLTCTVSGGSISSHYWSWIRQPAGKGLEWIGRIYTSGSTNYNPPLKSRVTMSVDTSKNQFSLKLSSVTAADTAVYYCAREGYDFWSGYYNYYYGMDVWGQGTTVTVS VL: EIVLTQSPGTLSLSPGERATLSCRASQSVISSYLAWYQQKPGQAPRLLIYGASSRATGIPDRFSGSGSGTDFTLTISRLEPEDFAVYYCQQYGSAFTFGGGTKVEIK | – | – | – | – | – | – | – | – | – | – | – | – | – | – | – | – | > 5 |
| 6.17 (antibody, V domains shown, human IgG2 or IgG4) VH: EVQLVQSGAEVKKPGESLRISCKGSGYSVSSYWIGWVRQMPGKGLEWMGIIYPGDSDTRYSPSFQGQVTISADKSISTAFLQWISLKASDTAMYYCARLQGDCSGGSCYGHFDYWGQGTLVTVS VL: EIVLTQSPGTLSLSPGERATLSCRASQTISSGYLAWYQQKPAQAPRLLIYVASRRATGIPDRFSGSGSGTDFTLTISRLEPEDFAVYYCQQYGSSSWTFGQGTTVEIK | > 80 | 0.27 | 22.5 | 64.1 | 76.3 | 22.3 | 93.7 | 63.7 | binds | binds | binds | binds | no binding | binds | no binding | binds | – |
| 6.18 (antibody, V domains shown, human IgG2 or IgG4) VH: EVQLVQSGAEVKKPGESLRISCKGSGYSVTSYWIGWVRQMPGKGLEWMGIIYPGDSDTRYSPSFQGQVTISADKSISTAYLQWSSLKASDTAMYYCARLQGDCSGGTCYGHFDYWGQGTLVTVS VL: EIVLTQSPGTLSLSPGERATLSCRASQSVSSSYLAWYQQKPAQAPRLLIYVASRRATGIPDRFSGSGSGTDFTLTISRLEPEDFAVYYCQQYGTSSWTFGQGTTVEIK | > 80 | 0.19 | 31.2 | 58.5 | 85 | 19.7 | 98.4 | 55.5 | binds | binds | binds | binds | no binding | binds | no binding | binds | – |

Further lines, results first:

| relative inhibition at an optimal concentration, CHO-VLA-1 adhesion to collagen IV [1] [%] | IC50, adhesion of CHO-VLA-1 cells to collagen IV [2] [nM] | % adhesion of IL-2 activated T cells to collagen IV vs no antibody, 10 µg/ml, +PMA [3] [%] | % adhesion of IL-2 activated T cells to collagen IV vs no antibody, 10 µg/ml, -PMA [3] [%] | % adhesion of T cells to collagen IV vs no antibody, 0.5 nM mAb, no PMA [4] [%] | % adhesion of T cells to collagen IV vs no antibody, 5 nM mAb, no PMA [4] [%] | % adhesion of T cells to collagen IV vs no antibody, 0.5 nM mAb, 10 ng/ml PMA [5] [%] | % adhesion of T cells to collagen IV vs no antibody, 5 nM mAb, 10 ng/ml PMA [5] [%] | binding result [6] | binding result [7] | binding result [8] | binding result [9] | binding result [10] | binding result [11] | binding result [12] | binding result [13] | T cell adhesion to immobilized collagen IV, relative estimated IC50 [14] [nM] | Binder |
| --- | --- | --- | --- | --- | --- | --- | --- | --- | --- | --- | --- | --- | --- | --- | --- | --- | --- |
| > 80 | 0.08 | 18 | 30 | 33.5 | 12.1 | 85.4 | 34.8 | binds | binds | no binding | binds | no binding | binds | binds | binds | – | 2.7 (antibody, V domains shown, human IgG2 or IgG4; also called antibody 2.7) VH: EVQLVESGGGLVKPGGSLRLSCAASGFTFSNAWMSWVRQAPGKGLEWVGRIKRKTDGETTDYAAPVKGRFTISRDDSRNTLYLQMNSLKTEDTAVYYCTIYTYYYGMDVWGQGTTVTVSS VL: DIQMTQSPSSLSASVGDRVTITCRASQSINNYLNWYQQKPGKAPKLLIYAASSLESGVPSRFSGSGSGTDFTLTISSLQPEDFATYYCQQSYSTPPTFGQGTKVEIK |
| > 80 | 0.08 | 23.7 | 49.2 | 70.7 | 25 | 89.8 | 56.6 | binds | binds | binds | binds | no binding | binds | binds | binds | – | 6.44 (antibody, V domains shown, human IgG2 or IgG4) VH: QVQLQESGPGLVKPSQTLSLICTVSGGSISRGDSYWSWIRQHPGKGLEWIGYIYYSGSTFYNPSLKSRVTISVDTSKNQFSLKLSSVTAADTAVYYCAREDRIFGVVDYWGQGTLVTVSS VL: not shown |
| – | 1 | 38.4 | 40.9 | 101 | 76.6 | 96.7 | 86.8 | – | – | – | – | – | – | – | – | > 5 | 10.1 (antibody, V domains shown) VH: QVQLQQSGPGLVKPSETLSLTCTVSGASISSYYWSWIRQPAGKGLEWIGRIYASGSTNYNPSLKSRVTMSVDTSKSQFSLNLSSVTAADTAVYYCAREGWERLQDYYYYGLDVWGQGTTVTVSS VL: EIVLTQSPGTLSLSPGERATLSCRASQSVSRNYLAWNQQKPGQAPRLLIYGASSRATGIPDRFSGSGSGTDFTLTISRLEPEDFAVYYCQQYGSSPLTFGGGTKVEIK |
| > 80 | 0.47 | – | – | – | – | – | – | binds | binds | no binding | binds | no binding | binds | binds | binds | – | 2.19 (antibody, V domains shown, human IgG2 or IgG4) VH: QVQLQESGPGLVKPSETLSLTCTVSGDSISSYYWSWIRQPPGKGLEWIGYVYYSGSTNYNPSLKSRVTMSVDTSKNQFSLKLSSVTAADTAVYYCARDLELYAFDIWGQGTMVTVSS VL: EIVLTQFPGTLSLSPGERVTLSCRASQSVSSTYVVWYQQKPGQAPRLLIYGASSRATGIPDRFSGSGSGTDFTLTISRLEPEDFAVYYCQQHGSSPWTFGQGTKVEIK |

From patent US20060286112A1 (published 2006)
